The target of assay [1] is DCAF1 (UniProt Q9Y4B6).
Assay [2] deals with DCAF1 (UniProt Q9Y4B6 1-1507). The assay can be described thus: cell-based or functional assay.

Two molecules from article PMC3792905, “HIV-1 Vpr Induces the Degradation of ZIP and sZIP, Adaptors of the NuRD Chromatin Remodeling Complex, by Hijacking DCAF1/VprBP” (PLoS ONE, 2013) can be followed below.

Sequence of DCAF1 (UniProt Q9Y4B6) (Q9Y4B6 whole entry): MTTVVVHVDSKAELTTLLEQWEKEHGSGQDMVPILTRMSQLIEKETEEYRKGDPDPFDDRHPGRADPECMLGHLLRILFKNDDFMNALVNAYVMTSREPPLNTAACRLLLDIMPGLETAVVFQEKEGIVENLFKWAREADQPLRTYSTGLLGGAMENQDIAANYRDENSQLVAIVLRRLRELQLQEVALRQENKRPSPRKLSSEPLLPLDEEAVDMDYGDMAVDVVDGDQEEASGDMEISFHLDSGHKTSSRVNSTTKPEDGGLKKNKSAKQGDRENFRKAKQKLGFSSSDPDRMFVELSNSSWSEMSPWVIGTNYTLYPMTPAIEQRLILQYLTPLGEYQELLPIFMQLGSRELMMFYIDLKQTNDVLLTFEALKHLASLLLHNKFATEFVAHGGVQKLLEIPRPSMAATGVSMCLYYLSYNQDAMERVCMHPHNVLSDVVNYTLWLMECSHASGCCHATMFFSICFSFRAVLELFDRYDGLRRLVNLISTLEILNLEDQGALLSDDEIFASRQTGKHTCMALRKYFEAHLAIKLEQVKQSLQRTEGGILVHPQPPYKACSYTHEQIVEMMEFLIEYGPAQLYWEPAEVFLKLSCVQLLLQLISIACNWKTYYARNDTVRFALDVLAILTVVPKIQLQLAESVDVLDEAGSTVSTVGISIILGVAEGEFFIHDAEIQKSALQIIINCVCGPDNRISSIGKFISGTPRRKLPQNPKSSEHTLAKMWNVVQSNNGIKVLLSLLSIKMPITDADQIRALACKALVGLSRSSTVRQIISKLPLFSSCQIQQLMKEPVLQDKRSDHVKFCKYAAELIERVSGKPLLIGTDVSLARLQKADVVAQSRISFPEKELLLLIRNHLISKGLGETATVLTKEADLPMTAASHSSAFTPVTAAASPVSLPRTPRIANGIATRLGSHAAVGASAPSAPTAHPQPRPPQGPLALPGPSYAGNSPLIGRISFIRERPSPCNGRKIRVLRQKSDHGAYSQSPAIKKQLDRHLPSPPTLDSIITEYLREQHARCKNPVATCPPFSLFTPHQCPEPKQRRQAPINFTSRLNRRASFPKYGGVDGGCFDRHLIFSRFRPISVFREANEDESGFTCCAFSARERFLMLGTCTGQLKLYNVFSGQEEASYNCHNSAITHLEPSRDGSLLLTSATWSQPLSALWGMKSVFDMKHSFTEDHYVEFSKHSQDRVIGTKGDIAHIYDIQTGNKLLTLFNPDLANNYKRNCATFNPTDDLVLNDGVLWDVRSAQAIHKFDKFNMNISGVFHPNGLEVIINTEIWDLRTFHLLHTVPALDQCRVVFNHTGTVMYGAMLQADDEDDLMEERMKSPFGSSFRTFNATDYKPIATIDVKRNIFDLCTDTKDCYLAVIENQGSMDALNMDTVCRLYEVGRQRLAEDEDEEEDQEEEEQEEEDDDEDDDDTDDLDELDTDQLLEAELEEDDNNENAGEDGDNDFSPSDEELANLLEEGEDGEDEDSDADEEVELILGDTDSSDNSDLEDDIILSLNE
Sequence of DCAF1 (UniProt Q9Y4B6 1-1507) (Q9Y4B6 whole entry): as above

As for “VprQ65R (from UniProt P05928 1-96) (natural protein)”, the sZIP expression (FLAG/GFP signal ratio by Western blot) left in HeLa cells co-expressing FLAG-sZIP and the HA-tagged Vpr protein with DCAF1 [1] was 50%.

B1: HA-tagged Vpr from HIV-1 LAI (natural protein)
chain: MEQAPEDQGPQREPHNEWTLELLEELKNEAVRHFPRIWLHGLGQHIYETYGDTWAGVEAIIRILQQLLFIHFRIGCRHSRIGVTQQRRARNGASRS
Consider B1, for which, in the assay with DCAF1 [2], the “sZIP expression (FLAG/GFP signal ratio by Western blot) left in HeLa cells co-expressing FLAG-sZIP and the HA-tagged Vpr protein” value is under 15%.
